Data on 1 substance can be found in patent publication US20170022269A1.

Test [1] deals with Aβ(20-42) globulomer (human). As to the kind of experiment: dot blot densitometry, antibody 0.2 µg/ml; column Aβ(20-42) globulomer (reference).
The next test concerns the target Aβ(1-42) fibrils (human) (UniProt P05067). As to the kind of experiment: co-pelleting with Aβ(1-42) fibrils, SDS-PAGE, optical density of the heavy chain in pellet / (pellet + supernatant).

Chain of Aβ(20-42) globulomer (human) (peptide, as listed by the source): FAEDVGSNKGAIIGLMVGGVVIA
Chain of Aβ(1-42) fibrils (human) (P05067 672-713): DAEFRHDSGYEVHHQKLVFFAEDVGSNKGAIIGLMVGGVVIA

Substance “commercially available antibody 6E10 (Signet, Cat. no. 9320)” displayed a relation between recognition of Aβ(20-42) globulomer and the respective Aβ form in test [1] of 1. The antibody bound to fibrils [%] in the test with Aβ(1-42) fibrils (human) was 98%.
